As usually defined, the IC50 is the midpoint of a concentration-inhibition curve.

We go through 12 molecules from patent publication US20120240246A1, “Variant Calpastatins and Variant Calpains for Modulating the Activity or Stability of Calpain” (St. Jude Children's Research Hospital, priority 2009, published 2012).

In data set [1] the target is T1, m-calpain (Rattus norvegicus, UniProt Q07009).
T1 construct: diminishing activity >1,000-fold compared to full-length m-calpain; His6 (C); made in house; host or cells: E. coli
T1 sequence (Q07009 1-700): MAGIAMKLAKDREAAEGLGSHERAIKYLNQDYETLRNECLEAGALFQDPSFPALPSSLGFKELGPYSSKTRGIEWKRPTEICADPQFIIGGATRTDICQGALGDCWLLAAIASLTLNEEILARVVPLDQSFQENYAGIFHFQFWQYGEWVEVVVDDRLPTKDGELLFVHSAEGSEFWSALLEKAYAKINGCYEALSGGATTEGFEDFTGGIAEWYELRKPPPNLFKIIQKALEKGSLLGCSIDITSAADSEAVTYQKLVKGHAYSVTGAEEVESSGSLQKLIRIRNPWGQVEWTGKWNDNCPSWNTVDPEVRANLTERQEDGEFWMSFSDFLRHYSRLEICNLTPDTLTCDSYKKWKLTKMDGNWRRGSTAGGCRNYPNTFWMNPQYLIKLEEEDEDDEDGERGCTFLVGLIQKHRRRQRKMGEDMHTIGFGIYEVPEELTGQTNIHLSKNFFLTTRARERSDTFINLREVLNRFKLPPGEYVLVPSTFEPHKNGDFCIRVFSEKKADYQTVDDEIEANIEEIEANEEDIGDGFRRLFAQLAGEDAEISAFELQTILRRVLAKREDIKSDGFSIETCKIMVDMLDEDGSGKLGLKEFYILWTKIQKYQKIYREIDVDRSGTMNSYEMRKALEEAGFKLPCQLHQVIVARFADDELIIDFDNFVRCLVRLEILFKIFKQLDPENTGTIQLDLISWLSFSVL
T1 sequence (Q64537 87-270 partner limits assumed): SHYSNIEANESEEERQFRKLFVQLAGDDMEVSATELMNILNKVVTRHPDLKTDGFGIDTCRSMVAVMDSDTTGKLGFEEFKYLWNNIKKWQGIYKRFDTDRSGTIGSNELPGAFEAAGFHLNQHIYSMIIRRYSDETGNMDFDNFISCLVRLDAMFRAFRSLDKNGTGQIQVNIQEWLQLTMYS
The data set is described as follows: Calpastatin inhibition assay, hydrolysis by m-calpain. The class given is biochemical. To be noted: for IC50 values toward m-calpain (in words): derived from initial rate analysis. The protocol:
(§1) Calpastatin Inhibition Assays. Hydrolysis assays by m-calpain (1 nM or 20 nM), m-calpain mutants (1 nM) and μI-II (1.25-2.5 μM) were performed in 100-μl volumes containing 50 mM HEPES (pH 7.5), 200 mM NaCl, 1 mM DTT, various concentrations of substrate (0-1.5mM SLY-MCA (Sigma) or 0-50 μg/ml BODIPY-casein (Invitrogen)) and increasing inhibitor concentrations: 0-50 nM wild-type or mutant full-length calpastatin, fragments AB and BC, 0-20 μM peptide B1 for m-calpain, and 0-750 μM peptide B1 for μI-II. Duplicates or triplicates were performed for each condition in 96-well plates using a Molecular Devices microplate reader.

The target of data set [2] is T2, μI-II (protease core from μ-calpain) (Rattus norvegicus, UniProt P97571).
T2 construct: the protease core from μ-calpain (μI-II) were expressed in E. coli; made in house; host or cells: E. coli
T2 sequence (P97571 55-354 limits assumed): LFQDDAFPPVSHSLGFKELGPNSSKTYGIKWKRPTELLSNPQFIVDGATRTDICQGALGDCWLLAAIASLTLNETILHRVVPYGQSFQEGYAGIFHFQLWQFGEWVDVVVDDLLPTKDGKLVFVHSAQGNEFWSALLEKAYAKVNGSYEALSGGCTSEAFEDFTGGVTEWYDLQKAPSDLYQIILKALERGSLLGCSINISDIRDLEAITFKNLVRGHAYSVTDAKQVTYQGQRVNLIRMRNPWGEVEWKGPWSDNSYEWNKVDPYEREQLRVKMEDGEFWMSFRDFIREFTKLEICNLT
The data set is described as follows: Calpastatin inhibition assay, hydrolysis by μI-II. The data set is classed as biochemical. The note with it: mean ±s.e.m. The protocol: as §1

Data set [3] concerns the target protease core from µ-calpain (µI-II) (UniProt P97571). The data set is described as follows: cell-based or functional assay.
Data set [4] concerns the target calpastatin repeat 1 E177Δ mutant (UniProt P27321).
For data set [5], the target named is calpastatin repeat 1 K176/E177Δ mutant (UniProt P27321).
Chain of calpastatin repeat 1 K176/E177Δ mutant (P27321 whole entry, looked up, stated change not applied): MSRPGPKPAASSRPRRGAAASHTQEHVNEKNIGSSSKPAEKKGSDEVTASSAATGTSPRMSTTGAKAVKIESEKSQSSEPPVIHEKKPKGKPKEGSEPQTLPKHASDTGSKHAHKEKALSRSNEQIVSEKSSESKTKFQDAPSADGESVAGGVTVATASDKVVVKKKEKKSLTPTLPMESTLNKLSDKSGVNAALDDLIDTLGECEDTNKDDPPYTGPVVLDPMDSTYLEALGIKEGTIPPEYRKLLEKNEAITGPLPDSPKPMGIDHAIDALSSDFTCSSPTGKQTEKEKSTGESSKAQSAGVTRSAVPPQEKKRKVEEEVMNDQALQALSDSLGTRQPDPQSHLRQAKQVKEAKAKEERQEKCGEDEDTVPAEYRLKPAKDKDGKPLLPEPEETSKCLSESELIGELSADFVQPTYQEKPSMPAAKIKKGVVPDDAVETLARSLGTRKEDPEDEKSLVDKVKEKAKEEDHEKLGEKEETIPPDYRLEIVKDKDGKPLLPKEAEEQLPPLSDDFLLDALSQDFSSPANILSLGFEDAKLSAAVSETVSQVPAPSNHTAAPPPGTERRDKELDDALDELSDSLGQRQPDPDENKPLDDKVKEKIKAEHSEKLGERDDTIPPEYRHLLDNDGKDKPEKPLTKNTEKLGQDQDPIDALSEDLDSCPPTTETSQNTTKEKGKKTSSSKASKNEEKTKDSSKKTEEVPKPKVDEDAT
The target in data set [6] is calpastatin repeat 1 K176Δ mutant (UniProt P27321).
Chain of calpastatin repeat 1 K176Δ mutant (P27321 whole entry, looked up, stated change not applied): as above
In data set [7] the target is protease core from µ-calpain (µI-II) (UniProt P97571 29-356). The data set is described as follows: cell-based or functional assay.
Chain of protease core from µ-calpain (µI-II) (UniProt P97571 29-356) (P97571 29-356 limits assumed): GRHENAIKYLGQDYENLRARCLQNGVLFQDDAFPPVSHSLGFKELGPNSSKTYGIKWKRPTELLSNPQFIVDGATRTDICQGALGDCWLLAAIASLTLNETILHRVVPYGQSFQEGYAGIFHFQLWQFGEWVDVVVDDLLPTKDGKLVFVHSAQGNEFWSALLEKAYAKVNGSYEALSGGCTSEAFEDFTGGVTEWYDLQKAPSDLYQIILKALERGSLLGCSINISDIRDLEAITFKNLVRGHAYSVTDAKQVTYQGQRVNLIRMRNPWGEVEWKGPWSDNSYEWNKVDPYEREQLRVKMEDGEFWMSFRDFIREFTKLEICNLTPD
The target of data set [8] is m-calpain (catalytically active heterodimer used in hydrolysis and autolysis assays) (rat), Q07009. Description: cell-based or functional assay.
Data set [9] deals with m-calpain. Description: Hydrolysis activity of m-calpain mutants at the DI-II-DIII interface. The class given is biochemical, rat. To be noted: Ala substitution in DIII of 80 kDa subunit. The protocol:
as §1

Chain of protease core from µ-calpain (µI-II) (UniProt P97571) (P97571 29-356 limits assumed): as above
Chain of calpastatin repeat 1 E177Δ mutant (P27321 whole entry, looked up, stated change not applied): as the sequence (P27321 whole entry, looked up, stated change not applied) above

At m-calpain [1] (mean ±s.e.m.), “Ac-ALGIKEGTIPPEYRKLLE-NH2 [peptide B1, Ac-ALGIKEGTIPPEYRKLLE-NH2]” had a half-inhibitory concentration (IC50) of 0.41 ± 0.08 µM. As to “AB: 57-residue calpastatin repeat 1 fragment with regions A and B, ending at Lys190 (SKTKFQDAPSADGESVAGGVTVATASDKVVVKKKEKKSLTPTLPMESTLNKLSDKSG)”, the “IC50 values toward m-calpain (in words)” value in the data set with m-calpain [1] was “low nanomolar”. The IC50 in data set [2] was 80.5 ± 10.2 µM. “calpastatin repeat 1 fragment BC (57 residues, Asp163-Thr219) (from UniProt P27321 163-219) (peptide)” had an IC50 of inhibition of µI-II activity in data set [3] of 122 µM. The same measure, in the same setting: the result for “calpastatin repeat 1 fragment AB (57 residues, ending at Lys190) (from UniProt P27321 134-190) (peptide)” reads 80.5 µM; that for “rat calpastatin inhibitory repeat 1, short construct Ala134-Thr219 (86 residues) (from UniProt P27321 134-219)”, 155 µM. For the molecule “m-calpain (catalytically active heterodimer used in hydrolysis and autolysis assays)”, the “autolysis / proteolysis of the complex (SDS-PAGE)” value in [4], in [5] and in [6] was “all mutants succumbed to proteolysis within the kink” throughout.

B1: Peptide B1 Ac-ALGIKEGTIPPEYRKLLE-NH2 (peptide)
peptide: Ac-ALGIKEGTIPPEYRKLLE-NH2
For the molecule B1, the “IC50 of inhibition of µI-II activity” value in [7] amounted to 24.5 µM.

B2: Peptide B1 Ac-…-NH2 (peptide)
peptide: Ac-ALGIKEGTIPPEYRKLLE-NH2
The molecule B2 showed an IC50 of inhibition of substrate hydrolysis by m-calpain in [8] of 0.41 µM.

B3: R417A: rat m-calpain with R417A substitution in DIII of the 80 kDa subunit (protein, UniProt Q07009 20-700; Q64537 1-270, looked up, variant R417A)
Calpain-2 catalytic subunit: SHERAIKYLNQDYETLRNECLEAGALFQDPSFPALPSSLGFKELGPYSSKTRGIEWKRPTEICADPQFIIGGATRTDICQGALGDCWLLAAIASLTLNEEILARVVPLDQSFQENYAGIFHFQFWQYGEWVEVVVDDRLPTKDGELLFVHSAEGSEFWSALLEKAYAKINGCYEALSGGATTEGFEDFTGGIAEWYELRKPPPNLFKIIQKALEKGSLLGCSIDITSAADSEAVTYQKLVKGHAYSVTGAEEVESSGSLQKLIRIRNPWGQVEWTGKWNDNCPSWNTVDPEVRANLTERQEDGEFWMSFSDFLRHYSRLEICNLTPDTLTCDSYKKWKLTKMDGNWRRGSTAGGCRNYPNTFWMNPQYLIKLEEEDEDDEDGERGCTFLVGLIQKHRARQRKMGEDMHTIGFGIYEVPEELTGQTNIHLSKNFFLTTRARERSDTFINLREVLNRFKLPPGEYVLVPSTFEPHKNGDFCIRVFSEKKADYQTVDDEIEANIEEIEANEEDIGDGFRRLFAQLAGEDAEISAFELQTILRRVLAKREDIKSDGFSIETCKIMVDMLDEDGSGKLGLKEFYILWTKIQKYQKIYREIDVDRSGTMNSYEMRKALEEAGFKLPCQLHQVIVARFADDELIIDFDNFVRCLVRLEILFKIFKQLDPENTGTIQLDLISWLSFSVL
Calpain small subunit 1: MFLVNSFLKGGGGGGGGGGLGGGLGNVLGGLISGAAGGGGGGGGGGGMGLGGGGGGGGTAMRILGGVISAISEAAAQYNPEPPPPRSHYSNIEANESEEERQFRKLFVQLAGDDMEVSATELMNILNKVVTRHPDLKTDGFGIDTCRSMVAVMDSDTTGKLGFEEFKYLWNNIKKWQGIYKRFDTDRSGTIGSNELPGAFEAAGFHLNQHIYSMIIRRYSDETGNMDFDNFISCLVRLDAMFRAFRSLDKNGTGQIQVNIQEWLQLTMYS
Regarding B3, the “m-calpain activity after substitution (fraction of wild type)” value in the data set with m-calpain [9] was “one-half”.

B4: R469A: rat m-calpain with R469A substitution in DIII of the 80 kDa subunit (protein, UniProt Q07009 20-700; Q64537 1-270, looked up, variant R469A)
Calpain-2 catalytic subunit: SHERAIKYLNQDYETLRNECLEAGALFQDPSFPALPSSLGFKELGPYSSKTRGIEWKRPTEICADPQFIIGGATRTDICQGALGDCWLLAAIASLTLNEEILARVVPLDQSFQENYAGIFHFQFWQYGEWVEVVVDDRLPTKDGELLFVHSAEGSEFWSALLEKAYAKINGCYEALSGGATTEGFEDFTGGIAEWYELRKPPPNLFKIIQKALEKGSLLGCSIDITSAADSEAVTYQKLVKGHAYSVTGAEEVESSGSLQKLIRIRNPWGQVEWTGKWNDNCPSWNTVDPEVRANLTERQEDGEFWMSFSDFLRHYSRLEICNLTPDTLTCDSYKKWKLTKMDGNWRRGSTAGGCRNYPNTFWMNPQYLIKLEEEDEDDEDGERGCTFLVGLIQKHRRRQRKMGEDMHTIGFGIYEVPEELTGQTNIHLSKNFFLTTRARERSDTFINLAEVLNRFKLPPGEYVLVPSTFEPHKNGDFCIRVFSEKKADYQTVDDEIEANIEEIEANEEDIGDGFRRLFAQLAGEDAEISAFELQTILRRVLAKREDIKSDGFSIETCKIMVDMLDEDGSGKLGLKEFYILWTKIQKYQKIYREIDVDRSGTMNSYEMRKALEEAGFKLPCQLHQVIVARFADDELIIDFDNFVRCLVRLEILFKIFKQLDPENTGTIQLDLISWLSFSVL
Calpain small subunit 1: MFLVNSFLKGGGGGGGGGGLGGGLGNVLGGLISGAAGGGGGGGGGGGMGLGGGGGGGGTAMRILGGVISAISEAAAQYNPEPPPPRSHYSNIEANESEEERQFRKLFVQLAGDDMEVSATELMNILNKVVTRHPDLKTDGFGIDTCRSMVAVMDSDTTGKLGFEEFKYLWNNIKKWQGIYKRFDTDRSGTIGSNELPGAFEAAGFHLNQHIYSMIIRRYSDETGNMDFDNFISCLVRLDAMFRAFRSLDKNGTGQIQVNIQEWLQLTMYS
Consider B4, for which, in the data set with m-calpain [9], the “Ca2+ requirement” value is given as “doubled” and the “decrease in m-calpain activity” value was more than 60 fold.

B5: R420A: rat m-calpain with R420A substitution in DIII of the 80 kDa subunit (protein, UniProt Q07009 20-700; Q64537 1-270, looked up, variant R420A)
Calpain-2 catalytic subunit: SHERAIKYLNQDYETLRNECLEAGALFQDPSFPALPSSLGFKELGPYSSKTRGIEWKRPTEICADPQFIIGGATRTDICQGALGDCWLLAAIASLTLNEEILARVVPLDQSFQENYAGIFHFQFWQYGEWVEVVVDDRLPTKDGELLFVHSAEGSEFWSALLEKAYAKINGCYEALSGGATTEGFEDFTGGIAEWYELRKPPPNLFKIIQKALEKGSLLGCSIDITSAADSEAVTYQKLVKGHAYSVTGAEEVESSGSLQKLIRIRNPWGQVEWTGKWNDNCPSWNTVDPEVRANLTERQEDGEFWMSFSDFLRHYSRLEICNLTPDTLTCDSYKKWKLTKMDGNWRRGSTAGGCRNYPNTFWMNPQYLIKLEEEDEDDEDGERGCTFLVGLIQKHRRRQAKMGEDMHTIGFGIYEVPEELTGQTNIHLSKNFFLTTRARERSDTFINLREVLNRFKLPPGEYVLVPSTFEPHKNGDFCIRVFSEKKADYQTVDDEIEANIEEIEANEEDIGDGFRRLFAQLAGEDAEISAFELQTILRRVLAKREDIKSDGFSIETCKIMVDMLDEDGSGKLGLKEFYILWTKIQKYQKIYREIDVDRSGTMNSYEMRKALEEAGFKLPCQLHQVIVARFADDELIIDFDNFVRCLVRLEILFKIFKQLDPENTGTIQLDLISWLSFSVL
Calpain small subunit 1: MFLVNSFLKGGGGGGGGGGLGGGLGNVLGGLISGAAGGGGGGGGGGGMGLGGGGGGGGTAMRILGGVISAISEAAAQYNPEPPPPRSHYSNIEANESEEERQFRKLFVQLAGDDMEVSATELMNILNKVVTRHPDLKTDGFGIDTCRSMVAVMDSDTTGKLGFEEFKYLWNNIKKWQGIYKRFDTDRSGTIGSNELPGAFEAAGFHLNQHIYSMIIRRYSDETGNMDFDNFISCLVRLDAMFRAFRSLDKNGTGQIQVNIQEWLQLTMYS
In the case of B5, in the data set with m-calpain [9], the “Ca2+ requirement” value is given as “doubled” and the “m-calpain activity after substitution (fraction of wild type)” value is reported as “one-quarter”.

B6: repeat 1: 86-residue rat calpastatin inhibitory repeat 1 (residues 134-219), expressed in E. coli (protein, UniProt P27321 134-219, looked up, fragment)
chain: SKTKFQDAPSADGESVAGGVTVATASDKVVVKKKEKKSLTPTLPMESTLNKLSDKSGVNAALDDLIDTLGECEDTNKDDPPYTGPV
modifications: inhibitory repeat 1
Regarding B6, the “IC50 values toward m-calpain (in words)” value with m-calpain [1] was “low nanomolar”. This molecule also showed a half-maximal inhibitory concentration (IC50) in data set [2] of 155 ± 16.3 µM.
